Assay results as given in patent publication US20240075142A1 (LENTIGEN TECHNOLOGY, published 2024).
Each block holds one binder with its values, some of them ahead of it.

Target: T1, CD19 Fc recombinant protein (UniProt P15391 20-291)
T1 construct: Bought staining reagent (R&D System), detected with anti-Fc-AF647; also called CD19-Fc peptide; not shown: Fc part of the bought reagent
T1 sequence (looked up): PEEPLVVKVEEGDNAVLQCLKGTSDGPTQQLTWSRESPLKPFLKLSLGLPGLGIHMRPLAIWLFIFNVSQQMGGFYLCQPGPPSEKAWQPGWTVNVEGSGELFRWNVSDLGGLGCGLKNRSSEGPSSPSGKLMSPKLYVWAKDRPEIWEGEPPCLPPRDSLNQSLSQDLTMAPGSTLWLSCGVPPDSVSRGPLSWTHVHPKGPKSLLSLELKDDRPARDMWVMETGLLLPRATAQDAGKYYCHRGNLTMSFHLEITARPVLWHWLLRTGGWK
Assay: flow cytometry of CAR-transduced primary T cells stained with CD19 Fc, then anti-Fc AF647
Experimental: The surface expression of anti-CD20/CD19 CARs incorporating single chain fragment variable (ScFv) sequences reactive with fully human CD20 and CD19 antigens, is shown in Example 1 infra, FIG. 1B. The expression level for each ScFv-containing CAR was determined by flow cytometric analysis of LV-transduced T cells from healthy donors using CD19 Fc recombinant protein, followed by anti Fc AF647 (APC).
Half million CAR T cells were washed in cold AutoMACS buffer supplemented with 0.5% bovine serum albumin (Miltenyi Biotec, Bergisch Gladbach, Germany) and stained with CD19-Fc peptide (R&D System, Minneapolis, MN), followed by anti Fc-AF647 conjugate (Jackson ImmunoResearch, West Grove, PA). The 7-Aminoactinomycin D staining (7-AAD, BD Biosciences, San Jose, CA) was added to exclude dead cells. CD4 antibody labeled with Vioblue fluorochrome was used to separate CD4 and CD8 population. Non-transduced cells (UTD) were used as a negative control. Cells were washed twice, resuspended in 200 μl running buffer, and acquired by flow cytometry. Flow cytometric analysis was performed on a MACSQuant® 10 Analyzer (Miltenyi Biotec), and data plots were generated using FlowJo software (Ashland, OR).

binding result: binds
B1: CAR D0255 (CD20_CD19 CD28 CD28 BBz) (other)
chain: EIVLTQSPATLSLSPGERATLSCRASQSVSSYLAWYQQKPGQAPRLLIYDASNRATGIPARFSGSGSGTDFTLTISSLEPEDFAVYYCQQRSNWPITFGQGTRLEIKGGGGSGGGGSGGGGSEVQLVESGGGLVQPGRSLRLSCAASGFTFNDYAMHWVRQAPGKGLEWVSTISWNSGSIGYADSVKGRFTISRDNAKKSLYLQMNSLRAEDTALYYCAKDIQYGNYYYGMDVWGQGTTVTVSSGGGGSGGGGSGGGGSGGGGSGGGGSEVQLVQSGAEVKKPGASVKVSCKASGYTFTSYYMHWVRQAPGQGLEWMGLINPSGGSTSYAQKFQGRVTMTRDTSTSTVYMELSSLRSEDTAVYYCARSDRGITATDAFDIWGQGTMVTVSSGGGGSGGGGSGGGGSQSVLTQPPSVSVAPGRMAKITCGGSDIGNKNVHWYQQKPGQAPVLVVYDDYDRPSGIPERFSGSNSGDAATLTISTVEVGDEADYFCQVWDGSGDPYWMFGGGTQLTVLGAAAIEVMYPPPYLDNEKSNGTIIHVKGKHLCPSPLFPGPSKPFWVLVVVGGVLACYSLLVTVAFIIFWVRSKRSRLLHSDYMNMTPRRPGPTRKHYQPYAPPRDFAAYRSKRGRKKLLYIFKQPFMRPVQTTQEEDGCSCRFPEEEEGGCELRVKFSRSADAPAYQQGQNQLYNELNLGRREEYDVLDKRRGRDPEMGGKPRRKNPQEGLYNELQKDKMAEAYSEIGMKGERRRGKGHDGLYQGLSTATKDTYDALHMQALPPR
notes: Tandem CAR on transduced human primary T cells: CD20 scFv, G4S linker, CD19 scFv, CD28 hinge/TM, CD28_4-1BB, CD3zeta; no residue limits are stated; also called CAR DO255

binding result: binds
B2: CAR D0256 (CD20_CD19 CD8 CD28 BBz) (other)
chain: EIVLTQSPATLSLSPGERATLSCRASQSVSSYLAWYQQKPGQAPRLLIYDASNRATGIPARFSGSGSGTDFTLTISSLEPEDFAVYYCQQRSNWPITFGQGTRLEIKGGGGSGGGGSGGGGSEVQLVESGGGLVQPGRSLRLSCAASGFTFNDYAMHWVRQAPGKGLEWVSTISWNSGSIGYADSVKGRFTISRDNAKKSLYLQMNSLRAEDTALYYCAKDIQYGNYYYGMDVWGQGTTVTVSSGGGGSGGGGSGGGGSGGGGSGGGGSEVQLVQSGAEVKKPGASVKVSCKASGYTFTSYYMHWVRQAPGQGLEWMGLINPSGGSTSYAQKFQGRVTMTRDTSTSTVYMELSSLRSEDTAVYYCARSDRGITATDAFDIWGQGTMVTVSSGGGGSGGGGSGGGGSQSVLTQPPSVSVAPGRMAKITCGGSDIGNKNVHWYQQKPGQAPVLVVYDDYDRPSGIPERFSGSNSGDAATLTISTVEVGDEADYFCQVWDGSGDPYWMFGGGTQLTVLGAAATTTPAPRPPTPAPTIASQPLSLRPEACRPAAGGAVHTRGLDFACDIYIWAPLAGTCGVLLLSLVITLYCRSKRSRLLHSDYMNMTPRRPGPTRKHYQPYAPPRDFAAYRSKRGRKKLLYIFKQPFMRPVQTTQEEDGCSCRFPEEEEGGCELRVKFSRSADAPAYQQGQNQLYNELNLGRREEYDVLDKRRGRDPEMGGKPRRKNPQEGLYNELQKDKMAEAYSEIGMKGERRRGKGHDGLYQGLSTATKDTYDALHMQALPPR
notes: Tandem CAR on transduced human primary T cells: CD20 scFv, G4S linker, CD19 scFv, CD8 hinge/TM, CD28_4-1BB, CD3zeta; no residue limits are stated
